B1: H4H2292S (antibody, human IgG4, V domains shown)
VH: EVQLVESGGGVVQPGRSLRLSCAASGFTFSSYGMHWVRQAPGKGLEWVSFIWYDGSNKYYADSVKGRFTISRDNSKNTLYLQMNSLTAEDTAVYYCARRGILTGTTAFDIWGQGTMVTVSS
VL: DIQMTQSPSSLSASVGDRVTITCRASQSISSYLNWYQQKPGKAPKLLIYAASSLQSGVPSRFSGSGSGTDFTLTIRSLIPEDFATYYCQQTYNTPFTFGPGTKVEIK
notes: human IgG4 Fc (H4H)
B2: H4H2352S (antibody, human IgG4, V domains shown)
VH: EVQLVQSGAEVKKPGASVKVSCKASGYTFTNYGITWVRQAPGQGLEWMGWISAYNGNTGYAQKFQGRVTMTTDTSTSTAYMELRSLRSDDTAVYYCAREDYDFWRAFDIWGQGTMVTVSS
VL: EIVLTQSPGTLSLSPGERATLSCRASQSVSSTYLAWLQQKPGQAPRLLIYGASSRATGIPDRFSGSGSGTDFTLTINRLEPEDFAVYYCQQYAYSPYTFGQGTKLEIK
notes: human IgG4 Fc (H4H); also called H4H2352S-1
B3: H4H2342P (antibody, human IgG4, V domains shown)
VH: EVQLLESGGGLVQPGGSLRLSCAASGFTFSTYAMSWVRQAPGKGLEWVSAIRGNGVNTYYGDSMKGRFTISRDNSKDTLYLQMNSLRAEDTAVYYCAKNKWELLVFEYWGQGTLVTVSS
VL: DIQMTQSPSSLSASVGDRVTITCRASQDISNYLAWYQQKPGKVPKLLIYAASTLQSGVPFRFSGSGSGTDFTLTISSLQPEDVATYYCQKYNSAPPFGPGTKVDIK
notes: human IgG4 Fc (H4H)
B4: H4H2296S (antibody, human IgG4, V domains shown)
VH: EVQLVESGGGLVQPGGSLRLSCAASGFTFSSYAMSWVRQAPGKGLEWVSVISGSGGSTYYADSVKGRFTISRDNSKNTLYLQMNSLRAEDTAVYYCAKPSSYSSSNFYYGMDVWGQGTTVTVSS
VL: DIVMTQSPSSVSASVGDRVTITCRASQGISSWLAWYQQKPGKAPKLLIYAASSLRSGVPSRFSGSGSGTDFTLTITSLQPEDFATYYCQHTNSFPFTFGPGTKVEIK
notes: human IgG4 Fc (H4H)
B5: H4H2357S (antibody, human IgG4, V domains shown)
VH: EVQLVESGGGLVQPGGSLRLSCAASTFTFSSYAMTWVRQAPGKGLEWVSSISGSGDSTYYADSVKGRFTISRDNSKNTLFLQMNSLRAEDTAVYYCAKKDGPGRYYVRYGMDVWGQGTTVTVSS
VL: B4 VL with V3Q, A50T, A51T, R55Q, T76S, H90Q, T91A, F96L, P100G, E105D
notes: human IgG4 Fc (H4H)
B6: H4H2294S (antibody, human IgG4, V domains shown)
VH: EVQLVESGGGLVQPGGSLRLSCAASGFTFSSYAMSWVRQAPGKGLEWVSVISGSGGSTYYADAVKGRFTISRDNSKHTLYLQMNSLRAEDTAVYYCTKPSSYSSSNFYYGMDVWGQGSTVTVSS
VL: B4 VL with V3Q, M4L, R55Q, T76S, H90Q, T97P, E105D
notes: human IgG4 Fc (H4H)
B7: H4H2355S (antibody, human IgG4, V domains shown)
VH: EVQLVESGGGLVQPGGSLRLSCAASGFTFSSYAMSWVRQVPGKGLEWVSAISGSGDNTYNAESVKGRFTISRDNSKNMLYLQMNSLRAEDTAVYYCAKTKFSSSLLFDYWGQGTLVTVSS
VL: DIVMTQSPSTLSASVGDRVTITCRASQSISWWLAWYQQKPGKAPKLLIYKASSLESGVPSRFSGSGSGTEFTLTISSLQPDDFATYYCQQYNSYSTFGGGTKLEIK
notes: human IgG4 Fc (H4H)

This note sets out measurements from patent US20140056903A1 (Regeneron, published 2014).

As usually defined, the Kd is the constant that tells how readily two partners part at equilibrium. Read a low Kd as tighter binding. As usually defined, the koff is the rate constant with which the complex falls apart. The low end stands for a long-lived complex, the high end for a short-lived complex. For orientation: kon means a measure of how fast the partners come together. Read a high kon as faster complex formation.

Where a chain is given by its changes, count along the chain named. Names and notes keep the numbering of the source.

For one experiment, the target named is T1, human GFRα3 expressed with a C-terminal myc-myc-hexahistidine tag (human, UniProt O60609 32-374, biotinylated (sites not given) in ELISA format 2 and in the Octet cross-competition; not in SPR).
T1 construct: also called hGFRα3-mmh; hGFRα3-mmH
The experiment is described as follows: Octet cross-competition; biotin-hGFRα3-mmH pre-saturated with first antibody H4H2355S. The procedure:
(§1) A cross-competition assay was conducted to assess the ability of select antibodies to compete with one another for binding to human GFRα3 using an Octet RED384 biosensor (Fortebio Inc.). The entire experiment was performed at 25° C. with the flow rate of 1000 rpm in Octet HBST buffer (0.01 M HEPES pH7.4, 0.15M NaCl, 3 mM EDTA, 0.05% v/v Surfactant P20, 0.1 mg/mL BSA). To assess whether 2 antibodies were able to compete with one another for binding to their respective epitopes on biotinylated recombinant human GFRα3 expressed with a C-terminal myc-myc-hexahistidine tag (biotin-hGFRα3-mmH; SEQ ID:370), around ˜1.2 nm of biotin-hGFRα3-mmH was first captured onto streptavidin-coated Octet sensor tips (Fortebio Inc, #18-5019) by submerging the tips for 1 minute into a 10 μg/mL solution of biotin-hGFRα3-mmH. The antigen coated sensor tips were then placed into wells containing 25 μg/mL solution of a first anti-GFRα3 monoclonal antibody for 4 minutes to saturate the biotin-hGFRα3-mmH surface. The sensor tips were then subsequently dipped into wells containing 25 μ/mL solution of a second anti-GFRα3 monoclonal antibody. The sensor tips were washed in Octet HBST buffer in between every step of the experiment. The real-time binding response was monitored during the course of the experiment and the binding response at the end of every step was recorded as shown in FIG. 9. The response of mAb-2 binding to biotin-hGFRα3-mmH pre-complexed with the first antibody was compared and competitive/non-competitive behavior of different anti-GFRα3 monoclonal antibodies was determined.
As for B1, the “binding response of second antibody (nm)” value turned out to be 1.92 nm.

Consider B2, for which the “binding response of second antibody (nm)” value was 1.97 nm.

Regarding B3, the “binding response of second antibody (nm)” value came to 0.06 nm.

Turning to B4, the “binding response of second antibody (nm)” value was 0.18 nm.

As to B5, the “binding response of second antibody (nm)” value is 0.16 nm.

As to B6, the “binding response of second antibody (nm)” value amounted to 0.16 nm.

B7: the “binding response of second antibody (nm)” value turned out to be 0.07 nm.

The next experiment deals with T1, human GFRα3 expressed with a C-terminal …. Put plainly: Octet cross-competition; biotin-hGFRα3-mmH pre-saturated with first antibody H4H2357S. Here is the method:
as §1
In general terms: BLI is a label-free optical method that tracks binding on a fibre tip over time.
Take B1: the “binding response of second antibody (nm)” value came out at 1.92 nm.

With B2, the “binding response of second antibody (nm)” value amounted to 2 nm.

With B3, the “binding response of second antibody (nm)” value is -0.01 nm.

Take B4: the “binding response of second antibody (nm)” value was 0.06 nm.

On to B5, for which the “binding response of second antibody (nm)” value is 0.04 nm.

Turning to B6, the “binding response of second antibody (nm)” value amounted to 0.05 nm.

Consider B7, for which the “binding response of second antibody (nm)” value stood at 0 nm.

The target is the same in another experiment. The experiment is described as follows: Octet cross-competition; biotin-hGFRα3-mmH pre-saturated with first antibody H4H2294S. The procedure:
as §1
Consider B1, for which the “binding response of second antibody (nm)” value was determined as 1.92 nm.

Turning to B2, the “binding response of second antibody (nm)” value stood at 1.99 nm.

Turning to B3, the “binding response of second antibody (nm)” value came to 0.01 nm.

B4: the “binding response of second antibody (nm)” value came to 0.04 nm.

Regarding B5, the “binding response of second antibody (nm)” value is 0.03 nm.

Consider B6, for which the “binding response of second antibody (nm)” value turned out to be 0.02 nm.

Turning to B7, the “binding response of second antibody (nm)” value was 0 nm.

Another experiment has the same target. Put plainly: Octet cross-competition; biotin-hGFRα3-mmH pre-saturated with first antibody H4H2342P. The procedure:
as §1
As for B1, the “binding response of second antibody (nm)” value came out at 1.85 nm.

On to B2, for which the “binding response of second antibody (nm)” value is 1.72 nm.

For the molecule B3, the “binding response of second antibody (nm)” value was 0.06 nm.

Take B4: the “binding response of second antibody (nm)” value came out at 0.28 nm.

Take B5: the “binding response of second antibody (nm)” value came to 0.25 nm.

With B6, the “binding response of second antibody (nm)” value was found to be 0.23 nm.

In the case of B7, the “binding response of second antibody (nm)” value was 0.16 nm.

The target is the same in another experiment. Put plainly: Octet cross-competition; biotin-hGFRα3-mmH pre-saturated with first antibody H4H2236N3. The procedure:
as §1
For B1, the “binding response of second antibody (nm)” value was found to be 1.81 nm.

As for B2, the “binding response of second antibody (nm)” value was found to be 1.91 nm.

B3: the “binding response of second antibody (nm)” value was -0.01 nm.

B4: the “binding response of second antibody (nm)” value was determined as 0.02 nm.

As to B5, the “binding response of second antibody (nm)” value was 0.04 nm.

Turning to B6, the “binding response of second antibody (nm)” value came out at 0 nm.

In the case of B7, the “binding response of second antibody (nm)” value was found to be 0 nm.

Another experiment has the same target. The experiment is described as follows: SPR, Ab captured, 25C. The method, boiled down:
(§2)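 KD values come from 1:1 kinetic fits of surface plasmon resonance data, with KD (M) = kd/kₐ and t½ (min) = ln 2/(60*kd). The antibody was held on an amine-coupled anti-IgG capture surface and antigen flowed over in HBS-EP, pH 7.4, or PBS with 0.05% P20.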
For orientation: SPR reads the build-up and loss of mass on a sensor chip optically.
Consider B1, for which the Kd was 0.483 nM, the koff is 5.19e-05 s⁻¹, the kon was 108000 M⁻¹ s⁻¹ and the t1/2 was 3.72 h.

For the molecule B2, binding was characterised by a dissociation constant (Kd) of 0.082 nM, the koff was found to be 5.81e-05 s⁻¹, the kon came out at 709000 M⁻¹ s⁻¹ and the t1/2 came out at 3.32 h.

For B3, the Kd was found to be 1.1 nM, the koff was determined as 0.000204 s⁻¹, the kon was determined as 186000 M⁻¹ s⁻¹ and the t1/2 was 0.95 h.

The molecule B4 displayed a Kd of 0.332 nM, a koff of 0.000187 s⁻¹, a kon of 563000 M⁻¹ s⁻¹ and a t1/2 of 1.03 h.

B5: binding was characterised by a dissociation constant (Kd) of 2.42 nM, the off-rate (koff) is 0.000557 s⁻¹, the on-rate (kon) is 230000 M⁻¹ s⁻¹ and the t1/2 was found to be 0.35 h.

B6 showed a Kd of 0.142 nM, a koff of 7.99e-05 s⁻¹, a kon of 563000 M⁻¹ s⁻¹ and a t1/2 of 2.42 h.

Molecule B7 showed a Kd of 0.821 nM, a koff of 0.000152 s⁻¹, a kon of 186000 M⁻¹ s⁻¹ and a t1/2 of 1.27 h.

A further experiment has as its target T2, human GFRα3 expressed with a C-terminal mFc tag (human).
T2 construct: also called hGFRα3-mFc
T2 chain: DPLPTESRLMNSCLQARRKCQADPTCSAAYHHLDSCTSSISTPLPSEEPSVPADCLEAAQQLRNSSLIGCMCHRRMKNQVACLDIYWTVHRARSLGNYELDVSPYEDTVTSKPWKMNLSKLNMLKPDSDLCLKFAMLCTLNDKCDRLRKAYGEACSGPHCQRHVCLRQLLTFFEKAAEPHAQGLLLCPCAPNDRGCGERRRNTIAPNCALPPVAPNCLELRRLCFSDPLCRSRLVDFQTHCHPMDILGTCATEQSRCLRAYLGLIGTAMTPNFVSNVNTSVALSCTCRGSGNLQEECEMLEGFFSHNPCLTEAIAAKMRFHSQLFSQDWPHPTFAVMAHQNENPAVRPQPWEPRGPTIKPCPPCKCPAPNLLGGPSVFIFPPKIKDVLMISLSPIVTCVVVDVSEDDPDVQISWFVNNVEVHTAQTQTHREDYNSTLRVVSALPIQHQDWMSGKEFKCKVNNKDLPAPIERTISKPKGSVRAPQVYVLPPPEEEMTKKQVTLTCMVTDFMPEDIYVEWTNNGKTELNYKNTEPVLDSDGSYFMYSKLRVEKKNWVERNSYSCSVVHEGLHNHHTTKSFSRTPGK
The experiment is described as follows: SPR, Ab captured, 25C. An outline of the steps:
as §2
B1 returned a Kd of no more than 0.00187 nM, a kon of 534000 M⁻¹ s⁻¹ and a t1/2 of 192 h.

For B2, the Kd was no more than 0.000467 nM, the koff is no more than 1e-06 s⁻¹, the kon was determined as 2.14e+06 M⁻¹ s⁻¹ and the t1/2 is 192 h.

Regarding B3, the Kd was no more than 0.00151 nM, the koff was no more than 1e-06 s⁻¹, the kon is 661000 M⁻¹ s⁻¹ and the t1/2 was determined as 192 h.

As for B4, binding was characterised by a dissociation constant (Kd) of 0.00337 nM, the koff came out at 4.17e-06 s⁻¹, the on-rate constant (kon) was determined as 1.24e+06 M⁻¹ s⁻¹ and the t1/2 came to 46.2 h.

Molecule B5 had a Kd of 0.0324 nM, a koff of 2.52e-05 s⁻¹, a kon of 779000 M⁻¹ s⁻¹ and a t1/2 of 7.63 h.

The molecule B6 registered a Kd of 0.00463 nM, a koff of 5.63e-06 s⁻¹, a kon of 1.22e+06 M⁻¹ s⁻¹ and a t1/2 of 34.2 h.

In the case of B7, the Kd was no more than 0.00164 nM, the koff was no more than 1e-06 s⁻¹, the kon is 611000 M⁻¹ s⁻¹ and the t1/2 came to 192 h.
